{
  "source": "paper PMC6376114",
  "about": "“The Y. bercovieri Anbu crystal structure sheds light on the evolution of highly (pseudo)symmetric multimers” (Journal of molecular biology, 2017)",
  "key": {"[1]": {"target": "T1, YbATP-grasp (Yersinia bercovieri, UniProt A0ABP2E091)", "T1 construct": "gene yberc0001_40; N-terminally His-tagged (pQLinkH), E. coli ER2566 host; 780 kDa, 14-mer by sedimentation equilibrium; gene from the four-gene Anbu operon (ATP-grasp, alphaE, transglutaminase, Anbu)", "T1 sequence (A0ABP2E091 1-478)": "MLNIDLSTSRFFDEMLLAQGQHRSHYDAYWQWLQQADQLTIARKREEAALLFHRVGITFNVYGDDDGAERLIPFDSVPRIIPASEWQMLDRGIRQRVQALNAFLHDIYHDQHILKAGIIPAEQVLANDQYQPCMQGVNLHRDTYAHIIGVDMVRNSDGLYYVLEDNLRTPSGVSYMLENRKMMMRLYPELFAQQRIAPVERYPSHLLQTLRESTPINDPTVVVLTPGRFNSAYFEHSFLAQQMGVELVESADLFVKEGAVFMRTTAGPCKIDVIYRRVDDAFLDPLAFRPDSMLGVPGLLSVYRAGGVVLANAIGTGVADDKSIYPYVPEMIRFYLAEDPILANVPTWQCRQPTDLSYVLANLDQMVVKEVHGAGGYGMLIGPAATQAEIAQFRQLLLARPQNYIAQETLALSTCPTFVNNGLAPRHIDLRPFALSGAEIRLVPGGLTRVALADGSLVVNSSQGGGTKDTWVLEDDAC", "test": "[…]-orthophosphate release, thin-layer chromatography and autoradiography", "assay_type": "biochemical", "conditions": "50 mM Tris pH 7.5, 150 mM KCl, 5 mM MgCl2, 1 mM ATP, RT; labelled compound"}, "[2]": {"target": "T1, YbATP-grasp", "test": "differential scanning fluorimetry (thermofluor)", "assay_type": "binding", "conditions": "strong destabilization in presence of ATP; shift size not given"}, "[3]": {"target": "ATP-grasp protein encoded in the Y. bercovieri Anbu operon, N-terminally His-tagged (Yersinia bercovieri)", "test": "AUC; sedimentation equilibrium of YbATP-grasp at 4000, 7000 and 9000 rpm, buffer D in the reference sector, global fit (SEDPHAT)"}, "[4]": {"target": "Yersinia bercovieri Anbu (ancestral beta subunit), V14A/G107H variant (Yersinia bercovieri)", "test": "AUC; sedimentation equilibrium of YbAnbu at 4000, 7000 and 9000 rpm, buffer B in the reference sector, global fit (SEDPHAT)"}, "[5]": {"target": "Yersinia bercovieri Anbu (ancestral beta subunit), V14A/G107H variant (Yersinia bercovieri)", "test": "AUC; sedimentation velocity, 40,000 rpm, 20 °C, buffer D, continuous c(s) distribution model (SEDFIT)"}, "[6]": {"target": "Yersinia bercovieri Anbu (ancestral beta subunit), V14A/G107H variant (Yersinia bercovieri)", "test": "crystal structure; sitting drop vapor diffusion, 100 mM BIS-TRIS propane/HCl pH 6.7-7.1, 200 mM Na2SO4, 18% PEG 3350, 7.5% ethylene glycol; space group P21, 2.5 Å, two 14-mers in the asymmetric unit"}, "[7]": {"target": "Yersinia bercovieri Anbu (ancestral beta subunit), V14A/G107H variant (Yersinia bercovieri)", "test": "SEC; Superose 6 30/100 column, 0.5 ml/min, buffer D (50 mM Tris pH 7.5, 300 NaCl, 1 mM EDTA); calibrated with BioRad standards, yeast 20S and EcHslV"}},
  "note": "Several values for one entry are separate records, joined by “and”; a condition that tells them apart may be missing. Equal values may be shown once.",
  "data": [
    {"compound": "Nc1ncnc2c1ncn2[C@@H]1O[C@H](COP(=O)(O)OP(=O)(O)OP(=O)(O)O)[C@@H](O)[C@H]1O", "note": "[ATP]", "values": [
      {"measurement": "32P-orthophosphate release, thin-layer chromatography and autoradiography", "setting": "[1]", "result": "The YbATP-grasp protein led to robust production of orthophosphate"},
      {"measurement": "differential scanning fluorimetry (thermofluor)", "setting": "[2]", "result": "indicated strong destabilization of YbATP-grasp in the presence of ATP, but not ADP"}
    ]},
    {"compound": "ATP-grasp protein encoded in the Y. bercovieri Anbu operon, N-terminally His-tagged (natural protein)", "values": [
      {"measurement": "stoichiometry N", "setting": "[3]", "result": 14}
    ]},
    {"compound": "Yersinia bercovieri Anbu (ancestral beta subunit), V14A/G107H variant (natural protein)", "values": [
      {"measurement": "stoichiometry N", "setting": "[4]", "result": 14},
      {"measurement": "stoichiometry N", "setting": "[5]", "result": 12},
      {"measurement": "stoichiometry N", "setting": "[6]", "result": 14},
      {"measurement": "stoichiometry N", "setting": "[7]", "result": "9 and 5 and 14"}
    ]}
  ]
}
